{
  "source": "paper PMC4362353",
  "binders": {"B1": {"name": "secreted human Galectin 3-binding protein from HEK293 culture medium (natural protein)", "chain": "VNDGDMRLADGGATNQGRVEIFYRGQWGTVCDNLWDLTDASVVCRALGFENATQALGRAAFGQGSGPIMLDEVQCTGTEASLADCKSLGWLKSNCRHERDAGVVCTNETRSTHTLDLSRELSEALGQIFDSQRGCDLSISVNVQGEDALGFCGHTVILTANLEAQALWKEPGSNVTMSVDAECVPMVRDLLRYFYSRRIDITLSSVKCFHKLASAYGARQLQGYCASLFAILLPQDPSFQMPLDLYAYAVATGDALLEKLCLQFLAWNFEALTQAEAWPSVPTDLLQLLLPRSDLAVPSELALLKAVDTWSWGERASHEEVEGLVEKIRFPMMLPEELFELQFNLSLYWSHEALFQKKTLQALEFHTVPFQLLARYKGLNLTEDTYKPRIYTSPTWSAFVTDSSWSARKSQLVYQSRRGPLVKYSSDYFQAPSDYRYYPYQSFQTPQHPSFLFQDKRVSWSLVYLPTIQSCWNYGFSCSSDELPVLGLTKSGGSDRTIAYENKALMLCEGLFVADVTDFEGWKAAIPSALDTNSSKSTSSFPCPAGHFNGFRTVIRPFYLTNSSGVD"}},
  "target": "recombinant adeno-associated virus-6 vector particle (rAAV6 capsid) (adeno-associated virus 6)",
  "assay": "co-sedimentation",
  "data": [
    {"binder": "B1", "values": [
      {"measurement": "percent of rAAV6 in the pellet fraction (2,000 g, 10 minutes)", "result": 70, "unit": "%"},
      {"measurement": "percent of rAAV6 in the precipitate (10,000 g, 30 minutes)", "result": 90, "unit": "%"}
    ]}
  ]
}
